Molecular target: Concanavalin A (UniProt P02866)
Experiment: SELEX
Conditions: FANA copy of the listed DNA template; every U is C8-alkyne-FANA U conjugated to 2-azidoethyl-alpha-D-mannose; displayed on its encoding dsDNA; round 3 recovery by qPCR; round 1 about 0.14%; PBS, 2.5 mM MgCl2, 1 mM CaCl2, 0.1 mM MnCl2, 0.01% Tween 20, room temperature

CCTATAGCCGTTTGCACAAGNNNNNNNNNNNNNNNNNNNNNNNNNNNNNNNNNNNNNNNNCCCGTACCCGTTAAGATTACTTCGGACTGGGATC [Man-cmFANA N40 library, round 3]
binding: 47 % recovery
